Data on three molecules can be found in US20060165684A1 (published 2006).

Numbering of substitutions follows the chain as printed.

To fix the notation:
B1: chimeric Neliximab (antibody, V domains shown)
VH: EVQLQQSGPELVKPGASVKMSCKASGYTFTTYVMHWVKQKPGQGLEWIGYINPYNDGTNYNEKFKGKATLTSDKSSSTAYMELSTLTSEDSAVYYCAEFITKTVGGSNWYLDVWGAGTTVTVSS
VL: QIVLTQSPAIMSASPGEKVTMTCSASSSISYIHWFQQKPGTSPKRWIYDTSKLPSGVPARFSGSGSGTSYSLTISSMEAEDAATYYCHQRSSYTWTFGGGTKLEIKR
notes: Murine VH and VL joined to human gamma 1 (pConGamma1f vector) and human kappa (pConKappa vector) constant regions, made in NSO or CHO cells; also called chimeric antibody of clone 17-1; chimerized #17
B2: murine Neliximab (antibody, V domains shown)
VH: B1 VH
VL: B1 VL
notes: also called #17; Clone 17
B3: murine Metiliximab (antibody, V domains shown)
VH: EVQLQQSGPELVKPGASVKMSCKASGYTFTSYVIHWVKQKPGQGLEWIGYINPYNYDTKYNEKFKGEATLTSDKSSNTAYMELSSLTSEDSAVYYCAGFFTRAVGGSYWYLDVWGAGTTVTVSS
VL: B1 VL with P54V, S76N, E80A, S92A, Y93S
notes: also called #9; Clone 9

The test concerns the target T1, peptide 6 (TIRC7 derived peptide).
T1 construct: also called Peptid6; Vol 6
T1 peptide: DLPDASVNGWSSDE
The test can be described thus: solution equilibrium titration with peptide, free antibody by ELISA (method of Friquet et al 1985), Klotz plot.
In turn, B1 returned a Kd of 1 nM.

Molecule B2 came in with a dissociation constant Kd of 1 nM.

B3 displayed a dissociation constant Kd of 0.5 nM.
